Experimental data taken from the supplement of paper PMC12764529.
± gives the half width of the 95% confidence interval.

Legend:
[1] = folding stability dG unfold from trypsin proteolysis; higher = more stable
Outline: (§1)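 How resistant each design was to proteolysis was captured as K50, inferred by Bayesian fitting of sequencing counts. Unfolding free energy was then derived relative to a sequence-predicted unfolded-state K50 and a shared folded-state K50, per protease or combined. Digestion used trypsin and chymotrypsin at 11 threefold-diluted concentrations plus a no-protease condition, on mini-proteins under 80 residues without cysteine in a PA-tagged cDNA display construct. Designs were kept only when AlphaFold2 dimer inter-PAE was above 15.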

[2] = folding stability dG unfold (combined trypsin and chymotrypsin); higher = more stable
Outline: as §1

[3] = folding stability dG unfold from chymotrypsin proteolysis; higher = more stable
Outline: as §1

| Sequence | folding stability dG unfold [1] [kcal/mol] | folding stability dG unfold [2] [kcal/mol] | folding stability dG unfold [3] [kcal/mol] |
| --- | --- | --- | --- |
| SAGQIVTTDPATGVTTVTIPFPDGSYATITITVEKLTPDKESIVSVDVDFKDKGKKVVPAAVLVEEILSSAG [r5_842_JUSTAS] | 0.25 ± 0.084 | 0.851 ± 0.17 | 1.07 ± 0.11 |
| SAGGSAGGSAGKVKLVEENGKLKLVVVDEKTKKVTVIEVPLENLDEILKLLPPGAKVYLLSAGGSAGGSAGG [r11_1006_TrROS_Hall] | 1.05 ± 0.053 | 2.12 ± 0.17 | 2.52 ± 0.049 |
| SAGMEEVEITIKITIEVPEGEEVTPEELAEALREAGFEIVEVKVEKTEDGRKRVTVEIKIRLTPEELEKSAG [r5_167_TrROS_Hall] | 2.31 ± 0.2 | 2.23 ± 0.19 | 2.02 ± 0.15 |
| SAGGKEIYKVNKKDFKKILDYLKKKKNAKITIIIKNKPIEIPIKDLEENYKKIKGKPNEPFYLEIEYSAGGS [r16_377_TrMRF] | 1.75 ± 0.087 | 2.14 ± 0.077 | 2.28 ± 0.034 |
| SAGEIVIPIPFDWEQAPRMAKHLLRRFQQEGKKIRIWVPDAGAVEAIKDALPPNFPIEVEPLKPGEPIPSAG [r5_911_TrROS] | 0.299 ± 0.34 | 0.909 ± 0.14 | 1.27 ± 0.27 |
| SAGGSAGGSASIPELAEELGLPAEVEVTEDVEPEKPVVYPVVVREPGGGEVRVVPVVLPPGVSAGGSAGGSA [r18_313_JUSTAS] | -0.223 ± 0.14 | 0.922 ± 0.16 | 1.36 ± 0.043 |
| SAGGSAGGSTILDALEKGFEITDIEPNNDGPYMLTVRNPEEGYRVTIMIHPNGDIMIQVQPVPSAGGSAGGS [r12_166_TrROS] | 1.83 ± 0.075 | 2.06 ± 0.1 | 2.19 ± 0.042 |
| SLEVARELGLPVERAIPTSVDPFNGRTHLVVLVSLPSRFVRIEVDVRYEPDPDGRLIPRVEVLRIEVFPESA [r9_613_TrMRF] | 2.59 ± 0.048 | 3.21 ± 0.05 | 3.67 ± 0.04 |
| SAGGSAGGSAGEPKIIPIKLPENAKVEEFENPDGYPIKIFENPDNGEIWIVWPDGKIWPISAGGSAGGSAGG [r11_601_TrROS] | 1.19 ± 0.051 | 0.93 ± 0.067 | 0.719 ± 0.056 |
| SAETVVNVTISRPPPSKYSVTITIQPPTSSTSLPTTTDLPPGAYEELLAALQKAHPNLTFSTVTETSDGSAG [r14_969_JUSTAS] | 0.614 ± 0.03 | 0.828 ± 0.12 | 0.758 ± 0.15 |
| SAGGMSVKIEEKTHPETNEITINVEYDDIEKAKKEIAEKIKKENGNIPVTLVDKNGKPITIPLKELISAGGS [r8_236_JUSTAS] | 0.0225 ± 0.087 | 0.317 ± 0.099 | 0.368 ± 0.03 |
| GMAPKTYTKEVEIKDSSGKPIKYKVTVTETALPDGSSESTITLTDPNSSKTTTINLSSPGKGLTPDDKILLS [r1_14_JUSTAS] | 0.562 ± 0.019 | 0.899 ± 0.075 | 1.09 ± 0.087 |
| SAGGSAGGSSVTLTFTGGNSEVTVELDAGGEGGFLARVTVVTESDGKLETVEADFYLGSLPGLSAGGSAGGS [r12_769_TrMRF] | 2.75 ± 0.13 | 3.29 ± 0.13 | 3.77 ± 0.065 |
| SAGGSMVLTLEEESEEGVLRVTELHFYPGEVTVTTRTFEIAPDGSVRSATESTTVIPVPPSALAEASAGGSA [r2_474_JUSTAS] | 1.37 ± 0.051 | 1.96 ± 0.1 | 2.33 ± 0.038 |
| SAGGSAGGSAGGMTIPLEFEFPDGRRLRITYHIEPSEDGLKITAEVEIEPIPEPPLPSDSAGGSAGGSAGGS [r10_1200_TrMRF] | 1.93 ± 0.14 | 3.31 ± 0.26 | 3.64 ± 0.13 |
| SAGMSVTLEFTDPDKSAEELKEEIMKKVGIPENYPVKVTETPSPADGYTLTITVDDPKVAEAIKKALSSAGG [r19_215_JUSTAS] | 1.26 ± 0.037 | 1.57 ± 0.066 | 1.742 ± 0.016 |
| SAPKVISATVTYNPATGKVTVTVTLEDADGPVTVTYTFDGDGNVPVTVYDTRTTKPLGTITVPADQLNLSAG [r14_608_TrMRF] | 1.06 ± 0.08 | 1.14 ± 0.18 | 1.21 ± 0.23 |
| SMRVRPDGYAVVIEVRVTEDAGPPPPPFEAIRDPETDRVTVVAGATPEEIVAFAEFPGVEVERIEVIPLLSA [r9_827_TrMRF] | 0.24 ± 0.1 | 0.572 ± 0.099 | 0.675 ± 0.086 |
| SAGGSAGGSSLEEIKAAAEEAVAAGHPVLTVTSGSGKVVTVEVGESPIESAGPLDGVTVTLTGSAGGSAGGS [r20_44_JUSTAS] | 1.02 ± 0.056 | 0.723 ± 0.073 | 0.443 ± 0.038 |
| SAGGSAGGSAGSMSTPRSSEKMEKDGGGETLVRTLTYPEPSLTRTVRTPPDGSSSSSTSAPSAGGSAGGSAG [r3_28_JUSTAS] | -0.452 ± 0.37 | 0.235 ± 0.2 | 0.54 ± 0.11 |
| PIIHFRSPEDAEDFVKELVKKIAKEARKNGDPGQPYEIKIPVVWHDEDSGGPHRFPIEIEIRPDGDIKLTFS [r1_316_TrROS] | 0.782 ± 0.02 | 1.42 ± 0.062 | 1.76 ± 0.088 |

| Sequence | folding stability dG unfold [1] [kcal/mol] | folding stability dG unfold [2] [kcal/mol] | folding stability dG unfold [3] [kcal/mol] |
| --- | --- | --- | --- |
| SAGGSAGGSMIVETEVEEGDGSAVTKTFYPDSVTTTVNTPDEVTVEKTFPDGTVETTTVPLSPSAGGSAGGS [r12_507_JUSTAS] | 0.607 ± 0.028 | 0.896 ± 0.086 | 0.967 ± 0.031 |
| SAGGSAGGSAMKRVTLTFPSTGKTLTFDFTTEEDIEAAIKAALGPEVDPAKVTVTVLPPGAASAGGSAGGSA [r18_350_JUSTAS] | 1.04 ± 0.054 | 2.12 ± 0.3 | 2.62 ± 0.054 |
| SAGGSAGGSMKIKPGQVVKIKVEKDGKIYEFEAKIDPKTGKLVEIKSAEELKGLKIKEIEIVPSAGGSAGGS [r12_6_TrROS_Hall] | 1.14 ± 0.027 | 1.99 ± 0.062 | 2.274 ± 0.016 |
| SLPYTPSTAELTLTLPGGEVKVKANVYTLPDGSTITIATFPDGSVAVYDPSLGRLVLYDPSTGKPIAVLGSA [r9_970_TrMRF] | 2.41 ± 0.038 | 2.32 ± 0.028 | 2.173 ± 0.013 |
| SADPDEEVTLTLTLPASASPEEVEKVRDEIREAFESLGLEVDVKVEADPETGEVPVTVTLKKEALEKLGSAG [r14_602_TrMRF] | 0.834 ± 0.043 | 1.73 ± 0.18 | 1.91 ± 0.06 |
| SAGGSAGGSAGGMILRDPNRDIWTADFPDSSGNLVSSREFPPGEIEEVLAEGNVSAEVLPSAGGSAGGSAGG [r11_159_JUSTAS] | 0.362 ± 0.015 | 0.315 ± 0.043 | 0.297 ± 0.059 |
| SMKKGEKIKIEKKKDGTLKITLPDGKEITVPLKDIKIEIKDGKIKITVFKDGKKIAEFELKIKKKKKKKKSA [r9_901_TrROS_Hall] | 1.71 ± 0.07 | 2.31 ± 0.42 | 2.64 ± 0.11 |
| SAVFIEVERDPGDGAYEVTIHYLIPLRPYKDPDGKQKPPVYFMIEITIRFSPNGQIRDLDIDIFPFDAPSAG [r14_246_TrROS] | 3.53 ± 0.13 | 4.28 ± 0.37 | 4.41 ± 0.15 |
| SAKPPVIVIRIEKKEDGTYRVTIEVDGKEIEIEVPEGTSLEEILKKLAEELGVEVEVVEVKDGYLVIKPSAG [r14_404_TrROS_Hall] | 2.82 ± 0.2 | 2.84 ± 0.26 | 2.88 ± 0.092 |
| SAGGSAGGSAWIPAKEIAKEIKAEYPPGKEREFRFPEEGWWIRIQVNKEGKPKVKVVPPEDISAGGSAGGSA [r18_61_TrROS] | 0.103 ± 0.19 | 0.109 ± 0.16 | 0.18 ± 0.17 |
| SAGGSAMPPVKVEVVEAEPFVVEGEGGLYLVRPFLVRAPDLPRLFLVVLVEDPGEPDVLAEVFDLDSAGGSA [r15_528_TrMRF] | 1.84 ± 0.041 | 2.37 ± 0.099 | 2.55 ± 0.045 |
| SAGKKIEIDMSLEELKKLPGIKKVEVKNGKVYLEVDGKKIEITIRPPKPVLEFKEGMSEEEKKELLKKLSAG [r5_2_TrROS_Hall] | 0.911 ± 0.093 | 1.22 ± 0.21 | 1.11 ± 0.1 |
| SAGGSAGGKEIKVIELPEEKVTIEVTITLEDGTVIKVTAVIDAETGEIVEITSVEIVPLPAEEKSAGGSAGG [r6_927_TrROS_Hall] | -0.122 ± 0.11 | 1.36 ± 0.21 | 1.88 ± 0.2 |
| SAGGSAEEEEARRLAEELARRLEEEGYEIERVEVRVERLPDGTVRITVRVYRKDGKPVLELEITLPSAGGSA [r15_232_TrROS_Hall] | 4.54 ± 0.19 | 4.97 ± 0.11 | 4.99 ± 0.18 |
| SAGGSAGGSAGGGMSIEEVKAKIEEEVGVEVSIEKVSGNTYKITLPKNNETYTIKIPKKSAGGSAGGSAGGS [r10_1032_JUSTAS] | 0.396 ± 0.062 | 0.373 ± 0.25 | -0.126 ± 0.3 |
| SAGMKIENAEITEIKVTVNEDGTVTVEMTVRLKNGYVVKVTMTFKNGKLEIKPEKVEVYKVKLPEEELSAGG [r19_84_TrROS_Hall] | 1.68 ± 0.098 | 2.09 ± 0.41 | 2.28 ± 0.22 |
| SAGGSAGGSAYIPAEEIAEEVAAVLPPDEVALFPLPEKPLVVLVVREEDGVPRVLVLPPELASAGGSAGGSA [r18_61_TrMRF] | 0.00934 ± 0.069 | 0.261 ± 0.082 | 0.367 ± 0.093 |
| SALVPIKGKYPVYEMRPEKDPNGNMKPEMRPVKVPIEFPFVVIDPENGKWVPADDIDPEDGRLVAPGLISAG [r14_122_TrROS] | 1.14 ± 0.051 | 0.598 ± 0.064 | -0.25 ± 0.045 |
| SAGGSAGGSAGWIDPEDIKKIQHERNPNNGRGEMRLEFENGKPVEIEFKSPEEALDWLLKSAGGSAGGSAGG [r11_339_TrROS] | -0.547 ± 0.15 | -0.185 ± 0.13 | -0.156 ± 0.23 |
| SAGGSAGGMTPVVVTVTITLPNGEVVEYRVPVAPDELEAAAEAVKEPLEAQGVDVEVEIEAVAASAGGSAGG [r6_721_JUSTAS] | 1.99 ± 0.065 | 1.7 ± 0.089 | 1.5 ± 0.033 |
| SAGGSAGGSKKPKFKVKKVEVVEENGKLRIRIVLEDGKKIEIEIKGLSKEEIEKKAKELLKKLSAGGSAGGS [r20_181_TrROS_Hall] | 3.57 ± 0.33 | 3.66 ± 0.22 | 3.93 ± 0.2 |
